In publication PMC8012516 (2021):

Legend:
[1] = target: angiotensin-converting enzyme 2 (UniProt Q9BYF1 18-805); test: SPR
[2] = target: S-receptor-binding domain (RBD)-Fc of SARS-CoV-2 (SARS-CoV-2, UniProt P0DTC2); test: SPR

Chain of angiotensin-converting enzyme 2 (Q9BYF1 18-740): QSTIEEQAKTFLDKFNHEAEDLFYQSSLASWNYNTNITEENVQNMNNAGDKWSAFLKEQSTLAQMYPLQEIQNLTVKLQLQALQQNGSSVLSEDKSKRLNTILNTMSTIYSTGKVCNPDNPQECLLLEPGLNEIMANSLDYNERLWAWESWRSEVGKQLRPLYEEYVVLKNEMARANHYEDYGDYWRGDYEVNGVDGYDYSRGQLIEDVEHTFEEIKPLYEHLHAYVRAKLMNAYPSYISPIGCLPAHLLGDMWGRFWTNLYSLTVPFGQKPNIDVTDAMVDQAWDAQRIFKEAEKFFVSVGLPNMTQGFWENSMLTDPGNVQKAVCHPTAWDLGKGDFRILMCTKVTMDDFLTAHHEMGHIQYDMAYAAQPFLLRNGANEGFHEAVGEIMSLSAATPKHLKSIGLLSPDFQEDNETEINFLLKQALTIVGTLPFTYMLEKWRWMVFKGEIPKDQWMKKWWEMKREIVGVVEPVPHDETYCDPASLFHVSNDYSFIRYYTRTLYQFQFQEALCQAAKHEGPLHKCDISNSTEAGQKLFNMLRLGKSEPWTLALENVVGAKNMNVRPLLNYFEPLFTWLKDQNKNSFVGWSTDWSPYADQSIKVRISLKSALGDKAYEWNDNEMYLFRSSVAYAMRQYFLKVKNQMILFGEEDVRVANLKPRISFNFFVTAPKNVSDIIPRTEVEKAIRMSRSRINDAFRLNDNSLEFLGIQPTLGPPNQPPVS

VQWRIRVAVIRK [antibacterial peptide DP7]
koff [1]: 0.00918 s⁻¹ | koff [2]: 0.00501 s⁻¹
